Data set [1] deals with klf-3 (F54H5.4) (Caenorhabditis elegans) (UniProt Q65ZG6).
Data set [2] addresses T1, ceh-52 (C07E3.5) (Caenorhabditis elegans) (UniProt Q17788).
T1 sequence: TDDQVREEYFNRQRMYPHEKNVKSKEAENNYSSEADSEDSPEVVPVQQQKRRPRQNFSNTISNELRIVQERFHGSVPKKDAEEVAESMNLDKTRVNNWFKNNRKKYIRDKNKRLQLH

Data set [3] has as its system T2, ztf-14 (M163.2) (Caenorhabditis elegans).
T2 sequence: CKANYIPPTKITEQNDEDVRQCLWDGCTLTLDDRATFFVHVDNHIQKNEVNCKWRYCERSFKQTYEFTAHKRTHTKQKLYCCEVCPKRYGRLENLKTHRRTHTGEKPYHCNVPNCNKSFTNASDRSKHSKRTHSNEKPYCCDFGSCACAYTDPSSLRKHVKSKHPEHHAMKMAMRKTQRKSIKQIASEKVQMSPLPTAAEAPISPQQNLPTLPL

Data set [4] deals with T3, syd-9 (ZK867.1) (Caenorhabditis elegans).
T3 sequence: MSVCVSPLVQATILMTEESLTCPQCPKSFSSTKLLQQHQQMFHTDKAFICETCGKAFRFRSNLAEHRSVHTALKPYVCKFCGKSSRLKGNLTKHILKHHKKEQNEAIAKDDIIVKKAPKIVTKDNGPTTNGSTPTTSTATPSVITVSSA

The target of data set [5] is T4, lsl-1 (F52F12.4) (Caenorhabditis elegans) (UniProt O02273).
T4 sequence: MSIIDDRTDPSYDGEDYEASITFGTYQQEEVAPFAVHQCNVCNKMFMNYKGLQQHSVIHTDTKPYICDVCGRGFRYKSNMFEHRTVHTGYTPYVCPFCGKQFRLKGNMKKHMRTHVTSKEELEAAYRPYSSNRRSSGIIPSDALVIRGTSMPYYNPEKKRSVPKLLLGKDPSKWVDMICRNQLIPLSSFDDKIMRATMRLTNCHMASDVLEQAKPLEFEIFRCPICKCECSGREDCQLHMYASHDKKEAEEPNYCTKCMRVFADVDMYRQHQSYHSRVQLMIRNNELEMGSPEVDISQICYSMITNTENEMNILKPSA

Data set [6] deals with T5, Y75B8A.6 (Y75B8A.6) (Caenorhabditis elegans) (UniProt A0A168H365).
T5 sequence: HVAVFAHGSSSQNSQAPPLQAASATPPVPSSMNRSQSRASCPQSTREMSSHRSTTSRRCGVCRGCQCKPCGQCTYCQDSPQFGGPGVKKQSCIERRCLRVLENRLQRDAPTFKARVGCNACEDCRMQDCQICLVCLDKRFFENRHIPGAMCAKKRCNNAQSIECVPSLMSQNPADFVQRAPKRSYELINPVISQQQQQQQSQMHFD

The target of data set [7] is T6, Y44A6D.3 (Y44A6D.3) (Caenorhabditis elegans) (UniProt Q9XXE0).
T6 sequence: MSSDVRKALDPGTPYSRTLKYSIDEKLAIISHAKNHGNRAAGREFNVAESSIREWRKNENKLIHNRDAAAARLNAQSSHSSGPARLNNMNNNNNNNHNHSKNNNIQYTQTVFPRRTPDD

For data set [8], the target named is T7, efl-2 (Y48C3A.17) (Caenorhabditis elegans) (UniProt A5HWA8).
T7 sequence: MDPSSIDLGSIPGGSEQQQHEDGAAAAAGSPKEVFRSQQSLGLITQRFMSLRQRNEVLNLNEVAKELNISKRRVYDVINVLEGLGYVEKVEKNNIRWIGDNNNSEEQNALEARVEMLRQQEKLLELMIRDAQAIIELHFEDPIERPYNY

In paper PMC4434323 one finds binding signal (PBM E-score (-0.5 to 0.5)) data, which are given here for 64 sequences.

klf-3 (F54H5.4) (Caenorhabditis elegans), sequence (Q65ZG6 180-315): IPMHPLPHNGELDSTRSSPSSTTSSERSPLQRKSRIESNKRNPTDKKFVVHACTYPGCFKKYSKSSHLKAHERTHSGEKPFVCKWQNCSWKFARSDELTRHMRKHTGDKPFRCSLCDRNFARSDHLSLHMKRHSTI

As for “AACGCCCA (double strand) [8-mer AACGCCCA]”, the binding signal (PBM E-score (-0.5 to 0.5)) in data set [1] came out at 0.483.

Consider “AAGAGTTA (double strand) [8-mer AAGAGTTA]”, for which the binding signal (PBM E-score (-0.5 to 0.5)) in data set [2] is 0.463. “AAGGGCGT (double strand) [8-mer AAGGGCGT]”: in data set [1], the binding signal (PBM E-score (-0.5 to 0.5)) was 0.487. In data set [3], “ACCACCCA (double strand) [8-mer ACCACCCA]” yielded a binding signal (PBM E-score (-0.5 to 0.5)) of 0.469. With “ACCACCCT (double strand) [8-mer ACCACCCT]”, in data set [3], the binding signal (PBM E-score (-0.5 to 0.5)) is 0.463. Take “ACGCCCAT (double strand) [8-mer ACGCCCAT]”: in data set [1], the binding signal (PBM E-score (-0.5 to 0.5)) was 0.49. As for “AGACCACC (double strand) [8-mer AGACCACC]”, the binding signal (PBM E-score (-0.5 to 0.5)) in data set [3] was determined as 0.494. For “AGAGTTAA (double strand) [8-mer AGAGTTAA]”, in data set [2], the binding signal (PBM E-score (-0.5 to 0.5)) was determined as 0.452.

As for “AGAGTTAT (double strand) [8-mer AGAGTTAT]”, in data set [2], the binding signal (PBM E-score (-0.5 to 0.5)) came out at 0.481. As to “AGGCCACC (double strand) [8-mer AGGCCACC]”, the binding signal (PBM E-score (-0.5 to 0.5)) in data set [3] was 0.453.

In data set [1], “AGGGCGTA (double strand) [8-mer AGGGCGTA]” yielded a binding signal (PBM E-score (-0.5 to 0.5)) of 0.484.

The sequence “AGGGCGTG (double strand) [8-mer AGGGCGTG]” came in with a binding signal (PBM E-score (-0.5 to 0.5)) in data set [1] of 0.491. In data set [3], “AGGGTAAA (double strand) [8-mer AGGGTAAA]” returned a binding signal (PBM E-score (-0.5 to 0.5)) of 0.46. Still for that read-out and setting: with “AGGTGGTC (double strand) [8-mer AGGTGGTC]” the figure was 0.475. “AGTGTTAT (double strand) [8-mer AGTGTTAT]”: the binding signal (PBM E-score (-0.5 to 0.5)) in data set [2] was found to be 0.454. Still for that read-out and setting: with “ATAACACC (double strand) [8-mer ATAACACC]” the figure was 0.457; with “ATAACTCC (double strand) [8-mer ATAACTCC]”, 0.482.

Regarding “ATACAGTA (double strand) [8-mer ATACAGTA]”, the results for the binding signal (PBM E-score (-0.5 to 0.5)) in data set [4] and in data set [5] were 0.492 and 0.491, respectively. “ATACCGTA (double strand) [8-mer ATACCGTA]” gave a binding signal (PBM E-score (-0.5 to 0.5)) in data set [5] of 0.492. As to “ATACGCCC (double strand) [8-mer ATACGCCC]”, the binding signal (PBM E-score (-0.5 to 0.5)) in data set [1] is 0.48.

On to “ATACGGTA (double strand) [8-mer ATACGGTA]”, for which the binding signal (PBM E-score (-0.5 to 0.5)) in data set [5] was 0.495.

On to “ATACTGTA (double strand) [8-mer ATACTGTA]”, for which the results for the binding signal (PBM E-score (-0.5 to 0.5)) in data set [4] and in data set [5] were 0.493 and 0.494, respectively. For the sequence “ATGGGTGG (double strand) [8-mer ATGGGTGG]”, the binding signal (PBM E-score (-0.5 to 0.5)) in data set [3] is 0.452. Regarding “CAACGCCC (double strand) [8-mer CAACGCCC]”, the binding signal (PBM E-score (-0.5 to 0.5)) in data set [1] is 0.482.

On to “CACGCCCA (double strand) [8-mer CACGCCCA]”, for which, in data set [1], the binding signal (PBM E-score (-0.5 to 0.5)) was determined as 0.49. Still for that read-out and setting: with “CCACACCC (double strand) [8-mer CCACACCC]” the figure was 0.486. On the same count and under the same terms, with “CCACGCCC (double strand) [8-mer CCACGCCC]” the figure was 0.494.

“CCCCGCCC (double strand) [8-mer CCCCGCCC]”: the binding signal (PBM E-score (-0.5 to 0.5)) in data set [1] was found to be 0.489. Still for that read-out and setting: the same measure for “CCCGCCCA (double strand) [8-mer CCCGCCCA]”: 0.485. The sequence “CCCGCGGG (double strand) [8-mer CCCGCGGG]” had a binding signal (PBM E-score (-0.5 to 0.5)) in data set [6] of 0.451. Still for that read-out and setting: the same measure for “CCGCGCGC (double strand) [8-mer CCGCGCGC]”: 0.462. As to “CCGCGCGG (double strand) [8-mer CCGCGCGG]”, the binding signal (PBM E-score (-0.5 to 0.5)) turned out to be 0.465 in data set [6] and 0.495 in data set [7].

“CCGCGGAA (double strand) [8-mer CCGCGGAA]” gave a binding signal (PBM E-score (-0.5 to 0.5)) in data set [6] of 0.468. On the same count and under the same terms, the same measure for “CCGCGGGA (double strand) [8-mer CCGCGGGA]”: 0.458. “CGCGCGCG (double strand) [8-mer CGCGCGCG]”: the binding signal (PBM E-score (-0.5 to 0.5)) in data set [6] was found to be 0.476; in data set [8], 0.494. In data set [6], “CGCGCGGC (double strand) [8-mer CGCGCGGC]” had a binding signal (PBM E-score (-0.5 to 0.5)) of 0.451. Same read-out and setting: with “CGCGGAAA (double strand) [8-mer CGCGGAAA]” the figure was 0.457; with “CGCGGAAC (double strand) [8-mer CGCGGAAC]”, 0.454; with “CGCGGCGC (double strand) [8-mer CGCGGCGC]”, 0.461.

For the sequence “CTACAGTA (double strand) [8-mer CTACAGTA]”, the values for the binding signal (PBM E-score (-0.5 to 0.5)) in data set [4] and in data set [5] were 0.49 and 0.498, respectively. “CTACCGTA (double strand) [8-mer CTACCGTA]” came in with a binding signal (PBM E-score (-0.5 to 0.5)) in data set [5] of 0.498. The sequence “CTACGCCC (double strand) [8-mer CTACGCCC]” yielded a binding signal (PBM E-score (-0.5 to 0.5)) in data set [1] of 0.48. As to “CTACGGTA (double strand) [8-mer CTACGGTA]”, the binding signal (PBM E-score (-0.5 to 0.5)) in data set [5] was found to be 0.491.

“CTACTGTA (double strand) [8-mer CTACTGTA]”: in data set [5], the binding signal (PBM E-score (-0.5 to 0.5)) was found to be 0.491. Take “GACCACAC (double strand) [8-mer GACCACAC]”: in data set [3], the binding signal (PBM E-score (-0.5 to 0.5)) was 0.488. “GACCACCA (double strand) [8-mer GACCACCA]” had a binding signal (PBM E-score (-0.5 to 0.5)) in data set [3] of 0.454. Same read-out and setting: the same measure for “GACCACCC (double strand) [8-mer GACCACCC]”: 0.499; for “GACCCCCC (double strand) [8-mer GACCCCCC]”: 0.478.

In turn, “GACCTCCC (double strand) [8-mer GACCTCCC]” returned a binding signal (PBM E-score (-0.5 to 0.5)) in data set [3] of 0.479.

On to “GAGTTATA (double strand) [8-mer GAGTTATA]”, for which the binding signal (PBM E-score (-0.5 to 0.5)) in data set [2] amounted to 0.465. “GCGCGCAA (double strand) [8-mer GCGCGCAA]” displayed a binding signal (PBM E-score (-0.5 to 0.5)) in data set [6] of 0.458. As to “GCGCGCGC (double strand) [8-mer GCGCGCGC]”, the binding signal (PBM E-score (-0.5 to 0.5)) in data set [6] is 0.465; in data set [8], 0.495. On to “GGACCACC (double strand) [8-mer GGACCACC]”, for which the binding signal (PBM E-score (-0.5 to 0.5)) in data set [3] was 0.495.

In the case of “GGAGTTAA (double strand) [8-mer GGAGTTAA]”, the binding signal (PBM E-score (-0.5 to 0.5)) in data set [2] stood at 0.464.

In the case of “GGCCACCC (double strand) [8-mer GGCCACCC]”, in data set [3], the binding signal (PBM E-score (-0.5 to 0.5)) is 0.494. With “GTACAGTA (double strand) [8-mer GTACAGTA]”, the binding signal (PBM E-score (-0.5 to 0.5)) in data set [4] and in data set [5] was 0.495 each time. “GTACGGTA (double strand) [8-mer GTACGGTA]”: the binding signal (PBM E-score (-0.5 to 0.5)) in data set [4] is 0.492; in data set [5] it was 0.494.

For the sequence “GTACTGTA (double strand) [8-mer GTACTGTA]”, the binding signal (PBM E-score (-0.5 to 0.5)) in data set [4] is 0.496; in data set [5], 0.497. The like results for “TACAGTAA (double strand) [8-mer TACAGTAA]” were, in that order, 0.494 and 0.495. “TACCGTAA (double strand) [8-mer TACCGTAA]” registered a binding signal (PBM E-score (-0.5 to 0.5)) in data set [5] of 0.493. As to “TACGCCCA (double strand) [8-mer TACGCCCA]”, the binding signal (PBM E-score (-0.5 to 0.5)) in data set [1] worked out at 0.486. Take “TACGGTAA (double strand) [8-mer TACGGTAA]”: in data set [5], the binding signal (PBM E-score (-0.5 to 0.5)) is 0.492. Consider “TACTGTAA (double strand) [8-mer TACTGTAA]”, for which the binding signal (PBM E-score (-0.5 to 0.5)) in data set [4] stood at 0.494; in data set [5], 0.49. Take “TCCGCGGA (double strand) [8-mer TCCGCGGA]”: the binding signal (PBM E-score (-0.5 to 0.5)) in data set [6] came out at 0.471.
